Measured values taken from PMC8163762, “Impact of DNA methylation on 3D genome structure”.

Target: T1, Ume6p (Saccharomyces cerevisiae, UniProt P39001 1-836)
T1 sequence: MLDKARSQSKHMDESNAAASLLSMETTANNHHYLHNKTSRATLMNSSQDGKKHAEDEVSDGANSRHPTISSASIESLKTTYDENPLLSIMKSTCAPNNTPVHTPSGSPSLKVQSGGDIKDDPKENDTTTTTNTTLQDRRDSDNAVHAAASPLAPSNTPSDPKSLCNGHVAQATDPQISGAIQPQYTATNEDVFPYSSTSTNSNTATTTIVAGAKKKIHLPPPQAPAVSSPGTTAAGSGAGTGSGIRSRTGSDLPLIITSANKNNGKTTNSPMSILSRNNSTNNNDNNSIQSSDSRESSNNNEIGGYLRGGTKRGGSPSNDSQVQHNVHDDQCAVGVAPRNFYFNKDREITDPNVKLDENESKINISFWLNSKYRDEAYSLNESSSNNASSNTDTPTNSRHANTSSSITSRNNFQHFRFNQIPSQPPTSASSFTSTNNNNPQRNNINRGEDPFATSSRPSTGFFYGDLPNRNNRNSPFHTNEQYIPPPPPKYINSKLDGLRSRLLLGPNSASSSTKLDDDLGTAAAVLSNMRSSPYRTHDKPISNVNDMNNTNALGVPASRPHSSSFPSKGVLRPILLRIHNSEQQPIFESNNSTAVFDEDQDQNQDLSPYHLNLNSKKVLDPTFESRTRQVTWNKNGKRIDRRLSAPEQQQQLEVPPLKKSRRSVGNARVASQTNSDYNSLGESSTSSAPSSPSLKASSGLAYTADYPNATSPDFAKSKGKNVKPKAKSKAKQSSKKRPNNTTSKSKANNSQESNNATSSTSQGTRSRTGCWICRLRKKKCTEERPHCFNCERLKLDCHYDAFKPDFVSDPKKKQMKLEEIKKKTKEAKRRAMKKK
Experiment: EMSA; EMSA buffer and temperature not given in material; protein dialyzed in 10 mM sodium phosphate pH 7.4, 50 mM NaCl, 10 uM ZnCl2
Details: protein: recombinant; tags: N-terminal 6xHis (pET14b); label: Cy5 on forward oligo

B1: SPO13 URS1 probe, unmethylated (Spo13-Cy5-F/Spo13-R) (dsDNA)
DNA 1: TTAATTAGGAGTATATTGAGAAATAGCCGCCGACAAAAAGGAAGTCTCATAAAAGT
DNA 2: ACTTTTATGAGACTTCCTTTTTGTCGGCGGCTATTTCTCAATATACTCCTAATTAA
binding result: binds
